Assay results reported in patent US20200087372A1 (ZEALAND PHARMA A S, published 2020).

Tests used:
Test in all cases: cell-based or functional assay
[1] = target: T1, endogenous GLP-1 receptor of a murine insulinoma cell line (murine, UniProt O35659 22-463)
T1 sequence (looked up): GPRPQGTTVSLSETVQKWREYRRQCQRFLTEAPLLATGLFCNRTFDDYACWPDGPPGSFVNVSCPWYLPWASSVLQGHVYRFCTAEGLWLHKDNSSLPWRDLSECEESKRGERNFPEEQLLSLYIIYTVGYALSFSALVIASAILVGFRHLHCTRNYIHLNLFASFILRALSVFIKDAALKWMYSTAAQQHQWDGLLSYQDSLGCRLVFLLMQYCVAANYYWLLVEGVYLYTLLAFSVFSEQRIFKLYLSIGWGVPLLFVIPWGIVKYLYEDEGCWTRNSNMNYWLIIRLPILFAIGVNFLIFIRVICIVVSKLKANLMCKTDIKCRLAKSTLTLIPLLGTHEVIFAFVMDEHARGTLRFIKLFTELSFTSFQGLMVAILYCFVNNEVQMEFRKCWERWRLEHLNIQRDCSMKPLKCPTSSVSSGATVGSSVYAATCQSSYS

[2] = target: endogenous glucagon receptor of primary rat hepatocytes (rat, UniProt P30082 27-485)
[3] = target: human glucagon receptor (Glucagon-R) (human, UniProt P47871 26-477)
[4] = target: human glucagon-like peptide 1 receptor (GLP-1R) (human, UniProt P43220 24-463)

Chain of human glucagon receptor (Glucagon-R) (P47871 26-477): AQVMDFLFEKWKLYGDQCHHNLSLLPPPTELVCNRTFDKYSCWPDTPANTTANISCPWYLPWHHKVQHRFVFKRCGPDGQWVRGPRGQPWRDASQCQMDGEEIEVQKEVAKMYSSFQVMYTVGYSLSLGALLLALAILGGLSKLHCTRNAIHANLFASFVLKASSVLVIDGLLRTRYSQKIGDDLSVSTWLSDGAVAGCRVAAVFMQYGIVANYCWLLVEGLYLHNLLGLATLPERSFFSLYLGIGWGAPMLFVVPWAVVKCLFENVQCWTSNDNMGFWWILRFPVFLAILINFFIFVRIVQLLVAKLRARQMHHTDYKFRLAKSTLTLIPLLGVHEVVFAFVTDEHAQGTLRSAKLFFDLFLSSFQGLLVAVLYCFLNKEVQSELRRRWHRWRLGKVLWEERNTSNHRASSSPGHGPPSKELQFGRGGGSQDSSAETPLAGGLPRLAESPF
Chain of endogenous glucagon receptor of primary rat hepatocytes (P30082 27-485): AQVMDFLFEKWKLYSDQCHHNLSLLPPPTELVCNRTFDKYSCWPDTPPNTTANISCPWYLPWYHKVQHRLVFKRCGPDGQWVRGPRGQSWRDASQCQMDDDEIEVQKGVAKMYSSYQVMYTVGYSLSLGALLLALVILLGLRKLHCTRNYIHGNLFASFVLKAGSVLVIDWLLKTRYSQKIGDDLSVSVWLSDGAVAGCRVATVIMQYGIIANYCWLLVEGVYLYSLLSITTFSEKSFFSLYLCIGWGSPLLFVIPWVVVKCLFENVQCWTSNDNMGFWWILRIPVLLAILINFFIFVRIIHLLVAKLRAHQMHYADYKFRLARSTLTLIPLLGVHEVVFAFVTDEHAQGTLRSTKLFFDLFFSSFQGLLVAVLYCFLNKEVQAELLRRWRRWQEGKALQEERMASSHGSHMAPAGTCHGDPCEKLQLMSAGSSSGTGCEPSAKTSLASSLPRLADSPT

B1: Compound 1: H-H-Aib-QGTFTSDYSKYLDERAAKDFIEWLE-K([17-Carboxy-heptadecanoyl]-isoGlu-GSGSGG)-A-NH2 (peptide)
peptide: HAQGTFTSDYSKYLDERAAKDFIEWLEKA
modifications: Aib (alpha-aminoisobutyric acid) at position 2; Lys 28 conjugated via its epsilon amino group to [17-Carboxy-heptadecanoyl]-isoGlu-GSGSGG; C-terminal amide (NH2); free N-terminus (R1 = H)
[1]
  EC50 [nM] (cAMP in murine insulinoma cells): 0.54 nM
[2]
  EC50 [nM] (inhibition of glycogen synthesis rate in primary rat hepatocytes): 5.6 nM
[3]
  EC50 hGCGR CHO-K1 [nM] (cAMP, AlphaScreen): 3.6 nM
[4]
  EC50 hGLP-1R CHO-K1 [nM] (cAMP, AlphaScreen): 0.48 nM
